For one substance, stoichiometry N results are on record in paper PMC8175363.

The target of this assay is unspliced Pyrococcus horikoshii PolII intein fusion protein NIHPho (N-extein M-H-A-A-K-R-N, 166-residue intein, C-extein C-D-G-D-E-D-His6) (Pyrococcus horikoshii) (UniProt O57861). The assay can be described thus: crystal structure; sitting drop vapour diffusion; protein about 3 mg/ml in 20 mM Tris pH 8.0, 100 mM NaCl; reservoir 0.1 M Tris HCl pH 8.5, 1.8 M ammonium sulfate, 0.1 M sodium chloride, 1% glycerol; data at 100 K; phased by SAD with the Se-Met derivative.

Broadly, the stoichiometry N is the number of molecules, sites or subunits per partner or assembly.

In turn, “unspliced Pyrococcus horikoshii PolII intein fusion protein NIHPho (N-extein M-H-A-A-K-R-N, 166-residue intein, C-extein C-D-G-D-E-D-His6) (from UniProt O57861 945-1123) (domain or fragment)” yielded a stoichiometry N of 2.
